Experimental data from paper PMC4384732 (The Journal of Cell Biology, 2015).
Blank lines part the entries; values can stand above or below the binder they belong to.

B1: N-terminally 6×His-tagged full-length CCM3 (natural protein)
chain: not shown
B4: CCM3 (purified, polyhistidine tag removed by TEV protease) (natural protein)
chain: not shown

How the values were obtained:
[1] = target: B4; experiment: crystal structure
[2] = target: GST-CCM2^FL (residues 1–438) (human, UniProt Q9BSQ5 1-438); experiment: pull-down
[3] = target: B1; experiment: pull-down
[4] = target: B4; experiment: BLI
[5] = target: B1; experiment: pull-down; remark: listed apart in the source
crystal structure = target: the molecule itself; experiment: crystal structure

Chain of GST-CCM2^FL (residues 1–438) (Q9BSQ5 1-438): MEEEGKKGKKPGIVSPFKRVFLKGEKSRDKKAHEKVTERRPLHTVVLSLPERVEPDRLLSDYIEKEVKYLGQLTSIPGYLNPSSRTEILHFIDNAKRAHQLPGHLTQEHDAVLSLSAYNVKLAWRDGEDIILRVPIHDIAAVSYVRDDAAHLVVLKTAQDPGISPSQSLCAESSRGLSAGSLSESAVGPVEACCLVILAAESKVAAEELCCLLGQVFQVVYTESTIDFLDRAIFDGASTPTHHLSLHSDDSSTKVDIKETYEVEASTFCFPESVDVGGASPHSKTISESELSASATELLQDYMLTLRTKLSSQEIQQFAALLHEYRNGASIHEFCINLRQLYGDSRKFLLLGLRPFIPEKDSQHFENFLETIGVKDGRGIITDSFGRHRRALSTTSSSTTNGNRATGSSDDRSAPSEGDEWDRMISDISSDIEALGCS

Binder: Ac-STIDFLDRAIFDGAST-NH2 [CCM2 LD–like motif peptide (224–239)]
- binding result [1]: binds

Binder: B1
- Kd [2]: 8.8 ± 1.6 µM

Binder: STIDFLDRAIFDGAST [GST-CCM2-LD–like motif (residues 224–239)]
- Kd [3]: 8.6 ± 2.2 µM
- Kd [4]: 9.5 ± 2.5 µM

Binder: B4
- binding result (crystal structure): binds

Next, values leading:

- binding result [5]: binds
B2: GST-CCM2^PTB-LongLinker (residues 51–251) (domain or fragment, human, UniProt Q9BSQ5 51-251, looked up)
chain: ERVEPDRLLSDYIEKEVKYLGQLTSIPGYLNPSSRTEILHFIDNAKRAHQLPGHLTQEHDAVLSLSAYNVKLAWRDGEDIILRVPIHDIAAVSYVRDDAAHLVVLKTAQDPGISPSQSLCAESSRGLSAGSLSESAVGPVEACCLVILAAESKVAAEELCCLLGQVFQVVYTESTIDFLDRAIFDGASTPTHHLSLHSDDS

- binding result [5]: binds
B3: GST-CCM2^PTB-ShortLinker (residues 51–238) (domain or fragment, human, UniProt Q9BSQ5 51-238, looked up)
chain: ERVEPDRLLSDYIEKEVKYLGQLTSIPGYLNPSSRTEILHFIDNAKRAHQLPGHLTQEHDAVLSLSAYNVKLAWRDGEDIILRVPIHDIAAVSYVRDDAAHLVVLKTAQDPGISPSQSLCAESSRGLSAGSLSESAVGPVEACCLVILAAESKVAAEELCCLLGQVFQVVYTESTIDFLDRAIFDGAS
